Tested on: Trichoderma reesei cellulase composition
Assay: Hydrolysis of AVICEL (microcrystalline cellulose) by the T. reesei cellulase composition, with/without GH61 polypeptide or heterocyclic compound
Assay type: biochemical
Details: for heterocyclic compound effect(no GH61) (ratio of percent conversion with compound to without) / heterocyclic compound effect(no GH61): AVICEL; for Percent conversion of AVICEL: GH61 present, no heterocyclic compound, one experiment
[1] = 1 day, 13.7±0.6% in the absence of GH61
[2] = 3 days, 28.6±0.4% in the absence of GH61
[3] = 7 days, 44±1% in the absence of GH61

C=C(C)CO [2-methyl-2-propen-1-ol]
heterocyclic compound effect(no GH61) (ratio of percent conversion with compound to without) (compound 5 mM, 1, 3 and 7 days): decreased later stages of hydrolysis

O=CC(=O)C[C@H](O)[C@H](O)CO [3-deoxyglucosone, 3-deoxy-D-erythro-hexosulose]
heterocyclic compound effect(no GH61) (ratio of percent conversion with compound to without) (compound 5 mM, 1, 3 and 7 days): ~1

Cc1cc(O)no1 [3-hydroxy-5-methylisoxazole]
heterocyclic compound effect(no GH61) (ratio of percent conversion with compound to without) (compound 5 mM, 1, 3 and 7 days): ~1

O=c1cc(O)c2ccccc2o1 [4-hydroxycoumarin]
heterocyclic compound effect(no GH61) (compound 1 mM, 1, 3 and 7 days): very slightly decreased

O=Cc1ccc(CO)o1 [5-(hydroxymethyl)furfural]
heterocyclic compound effect(no GH61) (compound 1 mM, 1, 3 and 7 days): greater than 1

OC[C@H]1OC=C[C@@H](O)[C@@H]1O [D-glucal, 1,5-anhydro-2-deoxy-D-arabino-hex-1-enitol]
heterocyclic compound effect(no GH61) (ratio of percent conversion with compound to without) (compound 5 mM, 1, 3 and 7 days): less than 1

O=C1O[C@H](CO)[C@H](O)[C@H]1O [D-xylonic γ-lactone]
heterocyclic compound effect(no GH61) (compound 5 mM, day 1 or 7): ~1

O=C1O[C@H](CO)[C@@H](O)[C@H]1O [ribonic γ-lactone]
heterocyclic compound effect(no GH61) (ratio of percent conversion with compound to without) (compound 5 mM, 1, 3 and 7 days): less than 1

B1: Aspergillus fumigatus GH61B polypeptide: GH61 polypeptide having cellulolytic enhancing activity (SEQ ID NO: 30), recombinantly prepared using Aspergillus oryzae JaL355 as a host (protein, listed as Aspergillus fumigatus)
chain: MTLSKITSIAGLLASASLVAGHGFVSGIVADGKYYGGYLVNQYPYMSNPPDTIAWSTTATDLGFVDGTGYQSPDIICHRDAKNGKLTATVAAGSQIEFQWTTWPESHHGPLITYLAPCNGDCATVDKTTLKFVKIAAQGLIDGSNPPGVWADDEMIANNNTATVTIPASYAPGNYVLRHEIIALHSAGNLNGAQNYPQCFNIQITGGGSAQGSGTAGTSLYKNTDPGIKFDIYSDLSGGYPIPGPALFNA
Percent conversion of AVICEL [1]: 13.6±0.2%
Percent conversion of AVICEL [2]: 29±1%
Percent conversion of AVICEL [3]: 46±2%

B2: Penicillium pinophilum GH61A polypeptide: GH61A polypeptide having cellulolytic enhancing activity (SEQ ID NO: 32), recombinantly prepared using Aspergillus oryzae HowB101 as a host (protein, listed as Penicillium pinophilum)
chain: MPSTKVAALSAVLALASTVAGHGFVQNIVIDGKSYSGYLVNQFPYESNPPAVIGWATTATDLGFVAPSEYTNADIICHKNATPGALSAPVAAGGTVELQWTTWPDSHHGPVISYLANCNGNCSTVDKTKLDFVKIDQGGLIDDTTPPGTWASDKLIAANNSWTVTIPSTIAPGNYVLRHEIIALHSAGNADGAQNYPQCINLEITGSGTAAPSGTAGEKLYTSTDPGILVNIYQSLSTYVIPGPTLWSGAANGAVATGSATAVATTATASATATPTTLVTSVAPASSTFATAVVTTVAPAVTDVVTVTDVVTVTTVITTTVL
Percent conversion of AVICEL [1]: 14.1±0.4%
Percent conversion of AVICEL [2]: 28.5±0.5%
Percent conversion of AVICEL [3]: 46±2%

B3: Talaromyces stipitatus GH61A polypeptide: GH61A polypeptide having cellulolytic enhancing activity (SEQ ID NO: 164), recombinantly prepared as described in Example 3 (protein, listed as Talaromyces stipitatus)
chain: MPSTKVAALSAVLALASTVAGHGFVQNIVIDGKSYTGYLVNQYPYQSNPPAVIGWSTTATDLGFVDGSGYTNPDIICHKNAKPGQLSAPVAAGGKVELEWTTWPESHHGPVISYLANCNGDCTTVDKTKLEFVKIDQRGLIDDSNPPGTWAADQLIAANNSWTVTIPESIAPGNYVLRHEIIALHSANNATGAQNYPQCINLQITGSGTANPSGTPGEKLYTPTDPGILVNIYQSLSSYVIPGPTLWSGAAAHVVATAAGSATGVASATATPTTLVTAVSSPTGAPSVVTPEAPSVTSFAPVVTVTDVVTVTTVITTTIS
Percent conversion of AVICEL [1]: 13.6±0.4%
Percent conversion of AVICEL [2]: 27.9±0.2%
Percent conversion of AVICEL [3]: 44.7±0.5%
